Laboratory results taken from patent US20240262922A1 (Merck KGaA, published 2024).
Read-outs that look alike come from different tables or passages of the source. Values belong to the binder of their own block, whether it stands above or below them.

Key:
AVI-GST-His6-hOX40L [1] = target: T1, AVI-GST-His6-hOX40L (human, UniProt P23510 51-183); assay: cell-based or functional assay
T1 sequence: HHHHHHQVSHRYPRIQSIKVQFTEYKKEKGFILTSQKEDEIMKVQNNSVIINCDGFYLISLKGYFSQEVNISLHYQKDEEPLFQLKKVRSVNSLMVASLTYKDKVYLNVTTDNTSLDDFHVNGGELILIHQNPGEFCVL

[2] = target: T2, recombinant human OX40L protein (R&D Systems, cat. #1054-OX) (human, UniProt P23510 51-183); assay: SPR steady state, Biacore T200; OX40L immobilised on CM5, antibody in solution
T2 construct: Bought soluble recombinant protein; also called rhOX40L; recombinant soluble OX40L
T2 sequence: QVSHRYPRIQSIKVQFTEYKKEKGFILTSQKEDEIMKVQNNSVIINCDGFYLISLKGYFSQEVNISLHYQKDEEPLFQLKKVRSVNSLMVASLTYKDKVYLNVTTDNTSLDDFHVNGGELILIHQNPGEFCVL
Procedure: (§1) Recombinant OX40L proteins (human OX40L protein, R&D systems, cat. #1054-OX; cynomolgus monkey OX40L, Novoprotein cat. #CP72) were immobilized onto Biacore CM5 sensor chips and anti-OX40L antibodies were bound to this surface at a range of concentrations. The response at steady state was measured with a Biacore T200 instrument (GE Healthcare) and plotted against the concentration of antibody and fit to a 1:1 binding model. The steady state KD was determined as the antibody concentration at a response equal to half the maximal response (Rₘₐₓ).

[3] = target: T2, recombinant human OX40L protein (R&D …); assay: SPR steady state affinity to human OX40L
Procedure: as §1

AVI-GST-His6-hOX40L [4] = target: T1, AVI-GST-His6-hOX40L; assay: cell-based or functional assay; remark: listed apart in the source
AVI-GST-His6-hOX40L [5] = target: T1, AVI-GST-His6-hOX40L; assay: cell-based or functional assay; remark: listed apart in the source
AVI-GST-His6-hOX40L [6] = target: T1, AVI-GST-His6-hOX40L; assay: cell-based or functional assay; remark: listed apart in the source
[7] = target: T2, recombinant human OX40L protein (R&D …); assay: cell-based or functional assay
AVI-GST-His6-hOX40L [8] = target: T1, AVI-GST-His6-hOX40L; assay: cell-based or functional assay; remark: listed apart in the source
[9] = target: T2, recombinant human OX40L protein (R&D …); assay: cell-based or functional assay; remark: listed apart in the source
[10] = target: T2, recombinant human OX40L protein (R&D …); assay: SPR steady state, Biacore T200; OX40L immobilised on CM5, antibody in solution; remark: listed apart in the source
Procedure: as §1
Steady state affinity assay was performed as described in section 1.1.7 of Example 1.

mouse OX40L = target: T3, mouse OX40L (mouse, UniProt P43488 51-198, limits assumed); assay: flow cytometry on CHO-S cells / ELISA on recombinant protein (sentence does not say which)
T3 sequence: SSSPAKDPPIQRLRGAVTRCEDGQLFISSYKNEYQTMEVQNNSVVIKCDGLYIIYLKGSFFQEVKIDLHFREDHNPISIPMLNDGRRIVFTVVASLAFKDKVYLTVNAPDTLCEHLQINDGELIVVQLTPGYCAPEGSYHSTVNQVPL

[11] = target: T4, recombinant cynomolgus monkey OX40L (Novoprotein cat. #CP72) (cynomolgus monkey, UniProt P23510 51-183 (human entry), limits assumed); assay: flow cytometry on CHO-S-OX40L cells / ELISA on recombinant OX40L (sentence does not say which)
T4 construct: Bought protein; also called cynomolgus OX40L
T4 chain: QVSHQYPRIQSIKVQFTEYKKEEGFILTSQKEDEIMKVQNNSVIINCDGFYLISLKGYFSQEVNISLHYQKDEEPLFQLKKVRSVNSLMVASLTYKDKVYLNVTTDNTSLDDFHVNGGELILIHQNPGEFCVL

AVI-GST-His6-hOX40L [12] = target: T1, AVI-GST-His6-hOX40L; assay: cell-based or functional assay; remark: listed apart in the source
[13] = target: T2, recombinant human OX40L protein (R&D …); assay: cell-based or functional assay; remark: listed apart in the source
[14] = target: T2, recombinant human OX40L protein (R&D …); assay: SPR steady state, Biacore T200; OX40L immobilised on CM5, FcFab in solution
Procedure: as §1
As with the IgG clones, binding affinity to human OX40L was determined for all twelve FcFabs using steady state affinity assay as described in section 1.1.7 of Example 1. […]

B2: 67B06 (IgG) (antibody)
heavy: not shown
light: SYELTQPLSVSVALGQTARMTCGGSDIENKNVHWYQQKPGQAPVLVIHRDNNRPSGIPERFSGSNSGNTATLTISRAQAGDEADYYCQVRDSNIVVFGGGTKLTVLGQPKAAPSVTLFPPSSEELQANKATLVCLISDFYPGAVTVAWKADSSPVKAGVETTTPSKQSNNKYAASSYLSLTPEQWKSHKSYSCQVTHEGSTVEKTVAPTECS
notes: also called 67B06 (IgG format)
- IC50 (read off the curve) (AVI-GST-His6-hOX40L [1]): ~5 nM
- OX40L neutralization/OX40-HEK Reporter IC50 (AVI-GST-His6-hOX40L [8]): 5.2 nM
- Primary T cell activation assay IC50 [9]: 20.9 nM
- Kd [10]: 12.7 nM
- binding result (mouse OX40L): no binding
- binding result [11]: binds

B3: 67B06 (FcFab) (antibody)
heavy: EPKSSDKTHTCPPCPAPPVAGPSVFLFPPKPKDTLMISRTPEVTCVVVDVSHEDPEVKFNWYVDGVEVHNAKTKPREEQYNSTYRVVSVLTVLHQDWLNGKEYKCAVSNKALPSSIEKTISKAKGQPREPQVYTLPPSREEMTKNQVSLTCLVKGFYPSDIAVEWESNGQPENNYKTTPPVLDSDGSFFLYSKLTVDKSRWQQGNVFSCSVMHEALHNHYTQKSLSLSPGAGGGGSGGGGSGGGGSQLQLQESGPGLVKPSETLSLTCSVSGGSISTSSYYWGWIRQPPGKGLEWSGSIYYSGSTYYRPSLQGRATISVDTSKNQFSLKLTSVTAADTAVYYCARHRGSYFFDIWGLGTLVTVSSASTKGPSVFPLAPSSKSTSGGTAALGCLVKDYFPEPVTVSWNSGALTSGVHTFPAVLQSSGLYSLSSVVTVPSSSLGTQTYICNVNHKPSNTKVDKRVEPKSC
light: SYELTQPLSVSVALGQTARMTCGGSDIENKNVHWYQQKPGQAPVLVIHRDNNRPSGIPERFSGSNSGNTATLTISRAQAGDEADYYCQVRDSNIVVFGGGTKLTVLGQPKAAPSVTLFPPSSEELQANKATLVCLISDFYPGAVTVAWKADSSPVKAGVETTTPSKQSNNKYAASSYLSLTPEQWKSHKSYSCQVTHEGSTVEKTVAPTECS
- OX40L neutralization/OX40-HEK Reporter IC50 (AVI-GST-His6-hOX40L [12]): 5.5 nM
- Primary T cell activation assay IC50 [13]: 7.2 nM
- Kd [14]: 20.3 nM
- IC50 (read off the curve) (AVI-GST-His6-hOX40L [5]): ~6 nM

B6: 88B06 (IgG) (antibody)
heavy: not shown
light: SYELTQPLSVSVALGQTARISCGGNNIGRKNVHWYQQKPGQAPVLVIYGDSNRPSGIPERFSGSNSGNTATLTIGRAQAGDEADYYCQVWDSSTVFGGGTKLTVLGQPKAAPSVTLFPPSSEELQANKATLVCLISDFYPGAVTVAWKADSSPVKAGVETTTPSKQSNNKYAASSYLSLTPEQWKSHKSYSCQVTHEGSTVEKTVAPTECS
- OX40L neutralization/OX40-HEK Reporter IC50 (AVI-GST-His6-hOX40L [8]): 18.9 nM
- Primary T cell activation assay IC50 [9]: 28.5 nM
- Kd [10]: 23.2 nM
- binding result (mouse OX40L): no binding
- binding result [11]: binds

B8: 95B06 (IgG) (antibody)
heavy: not shown
light: DMQMTQSPSSLSASVGDRVTITCRASQGIRNDLDWYQQKPGKVPKRLIHAASSLQSGVPSRFSGSGSGTEFTLTISSLQPEDFVTYYCLQHNTYPWTFGQGTKLEIKRTVAAPSVFIFPPSDEQLKSGTASVVCLLNNFYPREAKVQWKVDNALQSGNSQESVTEQDSKDSTYSLSSTLTLSKADYEKHKVYACEVTHQGLSSPVTKSFNRGEC
- OX40L neutralization/OX40-HEK Reporter IC50 (AVI-GST-His6-hOX40L [8]): 3.7 nM
- Primary T cell activation assay IC50 [9]: 7.4 nM
- Kd [10]: 42.4 nM
- binding result (mouse OX40L): no binding
- binding result [11]: binds

Next, values leading:

- IC50 (read off the curve) (AVI-GST-His6-hOX40L [1]): ~3 nM
- Kd [2]: 15 nM
- Kd [3]: 15 nM
- IC50 (read off the curve) (AVI-GST-His6-hOX40L [4]): ~4 nM
- IC50 (read off the curve) (AVI-GST-His6-hOX40L [5]): ~6 nM
- OX40L neutralization/OX40-HEK Reporter IC50 (AVI-GST-His6-hOX40L [6]): 6.6 nM
- Primary T cell activation assay IC50 [7]: 9.3 nM
B1: Ref2_Anti_OX40L (antibody, human IgG1, kappa, V domains shown)
VH: EVQLLESGGGLVQPGGSLRLSCAASGFTFNSYAMSWVRQAPGKGLEWVSIISGSGGFTYYADSVKGRFTISRDNSRTTLYLQMNSLRAEDTAVYYCAKDRLVAPGTFDYWGQGALVTVSS
VL: DIQMTQSPSSLSASVGDRVTITCRASQGISSWLAWYQQKPEKAPKSLIYAASSLQSGVPSRFSGSGSGTDFTLTISSLQPEDFATYYCQQYNSYPYTFGQGTKLEIKR

- IC50 (read off the curve) (AVI-GST-His6-hOX40L [1]): ~9 nM
- OX40L neutralization/OX40-HEK Reporter IC50 (AVI-GST-His6-hOX40L [8]): 7.5 nM
- Primary T cell activation assay IC50 [9]: 16.7 nM
- Kd [10]: 16.6 nM
- binding result (mouse OX40L): no binding
- binding result [11]: binds
B4: 97G07 (IgG) (antibody)
heavy: not shown
light: YYELTQPLSVSVALGQTARIPCGGNNIENKNVHWYQQKPGQAPVLVIYRDSNRPSGIPERFSGSNSGNTATLSINRAQAGDEADYYCQVWDSNTVIFGGGTKVTVLGQPKAAPSVTLFPPSSEELQANKATLVCLISDFYPGAVTVAWKADSSPVKAGVETTTPSKQSNNKYAASSYLSLTPEQWKSHKSYSCQVTHEGSTVEKTVAPTECS

- OX40L neutralization/OX40-HEK Reporter IC50 (AVI-GST-His6-hOX40L [12]): 6.2 nM
- Primary T cell activation assay IC50 [13]: 4.6 nM
- Kd [14]: 27.9 nM
- IC50 (read off the curve) (AVI-GST-His6-hOX40L [5]): ~6 nM
B5: 97G07 (FcFab) (antibody, IgG1)
heavy: EPKSSDKTHTCPPCPAPPVAGPSVFLFPPKPKDTLMISRTPEVTCVVVDVSHEDPEVKFNWYVDGVEVHNAKTKPREEQYNSTYRVVSVLTVLHQDWLNGKEYKCAVSNKALPSSIEKTISKAKGQPREPQVYTLPPSREEMTKNQVSLTCLVKGFYPSDIAVEWESNGQPENNYKTTPPVLDSDGSFFLYSKLTVDKSRWQQGNVFSCSVMHEALHNHYTQKSLSLSPGAGGGGSGGGGSGGGGSQLQLQESGPGLVKPSETLSLTCTVSGGSISSSSYYWGWIRQPPGKGLEWIGGIGSVDYSGNTYYKPSLKSRVTISVDTSKNQFSLKLSTVTAADTAVYHCARHRGIYFFDYWGQGTLVTVSSASTKGPSVFPLAPSSKSTSGGTAALGCLVKDYFPEPVTVSWNSGALTSGVHTFPAVLQSSGLYSLSSVVTVPSSSLGTQTYICNVNHKPSNTKVDKRVEPKSC
light: YYELTQPLSVSVALGQTARIPCGGNNIENKNVHWYQQKPGQAPVLVIYRDSNRPSGIPERFSGSNSGNTATLSINRAQAGDEADYYCQVWDSNTVIFGGGTKVTVLGQPKAAPSVTLFPPSSEELQANKATLVCLISDFYPGAVTVAWKADSSPVKAGVETTTPSKQSNNKYAASSYLSLTPEQWKSHKSYSCQVTHEGSTVEKTVAPTECS
notes: also called 97G07(2); anti-OX40L FcFab antibody 97G07

- Kd [2]: 31.9 nM
- Kd [3]: 31.9 nM
- IC50 (read off the curve) (AVI-GST-His6-hOX40L [4]): ~5 nM
- OX40L neutralization/OX40-HEK Reporter IC50 (AVI-GST-His6-hOX40L [6]): 7.3 nM
- Primary T cell activation assay IC50 [7]: 5.7 nM
B7: Ref1_Anti-OX40L (US Pat. No. 9,139,653) (antibody, V domains shown)
VH: EVQLVESGGGLVQPGGSLRLSCAASGFTFSNYAMNWVRQAPGKGLEWVSTISGSGGATRYADSVKGRFTISRDNSRNTVYLQMNSLRVEDTAVFYCTKDRLIMATVRGPYYYGMDVWGQGTTVTVSS
VL: DIQMTQSPSSLSASVGDRVTITCRASQSISSYLNWYQQKPGKAPNLLIYAASSLQSGVPSRFSGSGSETDFTLTISSLQPEDFATYYCQQSHSVSFTFGPGTKVDIK
